The source of these data is patent publication US20230242645A1.

The EC50 (read off the curve) is the concentration that produces a half-maximal response. As a reminder, the Kd is the equilibrium constant for the complex coming apart.

Test [1] has as its target human PD-L1 on CHO-K1 cells (WBP315.CHO-K1.hPro1.C11) (human) (UniProt Q9NZQ7). Kind of test: FACS on human PD-L1 expressing CHO-K1 cells, FITC anti-human IgG.
Test [2] addresses human PD-L1 extracellular domain, his tag (W315-hPro1.ECD.his) (human) (UniProt Q9NZQ7). Kind of test: SPR (Biacore T200), antibody captured on anti-human Fc, antigen as analyte, 25 °C. (In general: SPR reads the build-up and loss of mass on a sensor chip optically.)
The target in test [3] is mouse PD-L1 on 293F cells (WBP315.293F.mPro1.C1) (mouse) (UniProt Q9EP73). Kind of test: FACS on mouse PD-L1 expressing 293F cells, FITC anti-human IgG.
The target in test [4] is cynomolgus monkey PD-L1 on 293F cells (WBP315.293F.cPro1.2A) (cynomolgus monkey) (UniProt G7PSE7). Description: FACS on cynomolgus PD-L1 expressing 293F cells, FITC anti-human IgG.
cynomolgus monkey PD-L1 on 293F cells (WBP315.293F.cPro1.2A) (cynomolgus monkey), sequence (G7PSE7 entry or part of it limits assumed): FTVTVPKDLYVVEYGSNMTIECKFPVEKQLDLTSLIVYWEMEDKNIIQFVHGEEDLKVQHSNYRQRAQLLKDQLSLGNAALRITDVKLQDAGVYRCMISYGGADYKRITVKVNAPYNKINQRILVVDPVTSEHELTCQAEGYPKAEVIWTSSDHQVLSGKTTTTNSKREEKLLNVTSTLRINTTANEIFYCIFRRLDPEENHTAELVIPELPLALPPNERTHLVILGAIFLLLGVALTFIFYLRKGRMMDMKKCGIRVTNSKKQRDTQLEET

mouse PD-L1 on 293F cells (WBP315.293F.mPro1.C1) (mouse), sequence (Q9EP73 19-290): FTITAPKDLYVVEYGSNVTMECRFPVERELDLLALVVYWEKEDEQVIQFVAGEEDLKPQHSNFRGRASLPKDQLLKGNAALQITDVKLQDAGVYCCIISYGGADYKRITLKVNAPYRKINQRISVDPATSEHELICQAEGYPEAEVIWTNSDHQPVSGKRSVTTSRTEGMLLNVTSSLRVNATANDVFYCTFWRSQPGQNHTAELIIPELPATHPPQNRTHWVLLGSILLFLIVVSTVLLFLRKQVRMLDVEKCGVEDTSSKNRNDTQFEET
human PD-L1 on CHO-K1 cells (WBP315.CHO-K1.hPro1.C11) (human), sequence (Q9NZQ7 19-290): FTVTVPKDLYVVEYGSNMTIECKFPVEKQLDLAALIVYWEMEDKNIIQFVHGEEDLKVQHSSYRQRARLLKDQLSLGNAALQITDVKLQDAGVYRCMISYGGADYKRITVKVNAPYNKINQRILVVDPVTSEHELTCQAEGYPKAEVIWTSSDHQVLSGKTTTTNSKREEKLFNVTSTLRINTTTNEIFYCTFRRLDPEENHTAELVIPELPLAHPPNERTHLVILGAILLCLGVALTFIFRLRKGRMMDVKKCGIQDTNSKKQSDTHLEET
human PD-L1 extracellular domain, his tag (W315-hPro1.ECD.his) (human), sequence (Q9NZQ7 19-238): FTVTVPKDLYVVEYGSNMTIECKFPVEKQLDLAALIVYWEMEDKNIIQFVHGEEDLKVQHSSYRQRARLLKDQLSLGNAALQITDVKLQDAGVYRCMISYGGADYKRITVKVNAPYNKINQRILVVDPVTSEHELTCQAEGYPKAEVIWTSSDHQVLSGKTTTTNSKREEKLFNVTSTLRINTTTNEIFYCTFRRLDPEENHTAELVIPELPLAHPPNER

On to “W315-BMK8.uIgG1K(RKNA) (Atezolizumab) (antibody)”, for which the concentration giving a half-maximal response (EC50 (read off the curve)) was found to be 0.1 nM in test [1], 2 nM in test [3] and 2 nM in test [4]. In test [2], this substance returned a Kd of 0.0608 nM.
